Assay results taken from patent US20210238279A1 (Johns Hopkins, published 2021).

Legend:
human ZnT8-His = molecular target: T1, human ZnT8-His (human, UniProt Q8IWU4-2 1-320, limits assumed); test: ELISA, ZnT8-His on Ni-NTA plate, HRP-conjugated secondary antibody; binder taken from the axis label and paragraph 166; curve taken as human
T1 construct: Over-expressed in HEK293 cells, solubilized with DDM and immobilized on Ni-NTA plates (native or unfolded with 2% SDS), or SDS-denatured on immunoblots; also called human ZnT8 with C-terminal poly-histidine tag; not shown: C-terminal poly-histidine tag
T1 sequence (looked up): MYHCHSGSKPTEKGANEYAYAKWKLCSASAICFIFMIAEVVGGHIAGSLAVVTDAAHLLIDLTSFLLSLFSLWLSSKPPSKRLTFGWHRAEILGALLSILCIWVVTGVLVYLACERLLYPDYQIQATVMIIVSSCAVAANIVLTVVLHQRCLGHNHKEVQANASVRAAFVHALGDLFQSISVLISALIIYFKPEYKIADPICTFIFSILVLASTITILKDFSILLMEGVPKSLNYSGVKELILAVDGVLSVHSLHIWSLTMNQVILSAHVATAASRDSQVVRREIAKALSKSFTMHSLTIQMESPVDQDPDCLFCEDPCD
Description: FIG. 7A-7D. mAb binding specificities (FIG. 7A) mAb binding to ZnT8-His immobilized to Ni-NTA plate. Bound mAb20 (red) or mAb39 (magenta) was detected by an HRP-conjugated secondary antibody. Solid lines are least-squares fits of binding datapoints to a one-component binding process. Error bars are standard errors (n=8). (FIG. 7B) SDS-denatured mouse ZnT8-His (labeled as M) and human ZnT8-His (labeled as H) on immunoblots were detected by mAb20 or mAb39 as indicated. […] (FIG. 7C) Detection of endogenous human ZnT8 in EndoC-βH cells by mAb20 or […] immunoblotting. An equal amount of EndoC-βH lysate (5 μg total protein) was loaded to each lane. (FIG. 7D) Immunoblotting of HEK lysates with or with over-expression of a ZnT homolog as indicated. An approximately equal amount of total lysate protein (5 μg) was located to each lane, probed by either mAb20, mAb39, or anti-FALG antibody as indicated. FIG. 8. HTRF response to human ZnT8, mouse ZnT8 and human ZnT3.
Binding specificities. […] Of note, the epitope-masking effect of ZnT8 immobilization weakened the apparent binding affinities of both mAbs as compared to the affinities determined by flow-cytometry, and such a weakening effect was more pronounced for mAb39, probably due to a closer proximity of the mAb39 epitope to the C-terminal His-tag. Next, we compared the immunoreactivities of mAbs to denatured ZnT8.

[1] = molecular target: T2, monomeric human ZnT8 CTD-His antigen (aa 275-369) (human, UniProt Q8IWU4 275-369); test: ELISA, monomeric CTD-His on Ni-NTA plate
T2 construct: range 275-369; Immobilized on Ni-NTA plates through the C-terminal poly-histidine tag; also called CTD-His monomer; monomeric CTD antigen; not shown: C-terminal poly-histidine tag
T2 sequence (looked up): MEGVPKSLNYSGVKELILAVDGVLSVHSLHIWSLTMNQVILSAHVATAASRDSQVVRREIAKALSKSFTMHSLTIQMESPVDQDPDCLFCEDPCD
Description: Error bars represent standard deviations. (FIG. 1B) ELISA against a monomeric CTD antigen immobilized to Ni-NTA plate via a C-terminal poly-histidine tag. CTDA and NTDA were used a positive and negative control, respectively (Z>0.5).
Materials and Methods Generating hybridoma. Four pairs of male/female homozygous Slc30a8-1- mice were immunized by weekly intraperitoneal injections of a human ZnT8 antigen (the R325 variant) in reconstituted proteoliposomes. All experiments with mice were approved by the Institutional Animal Care and Use Committee of Johns Hopkins University School of Medicine. Serum antibody titering and validation of anti-ZnT8 specificity by CRISPR/Cas9 ZnT8-knockout were described previously (36). Following a final immunization boost, spleens were isolated. Splenocytes were fused with an immortalized myeloma cell line Sp2/0-Ag14 (CRL-1581, ATCC) at a 4:1 splenocytes-to-myeloma ratio by adding 1 ml of 50% PEG1500 (w/v, Roche) to the cell mixture drop-by-drop over 1 min (37). […] Bound antibodies were detected by an HRP-conjugated goat anti-mouse secondary antibody (Invitrogen, cat. #62-6500) with 1:3000 dilutions in assay buffer, followed by ABTS colorimetric reaction (Life Technologies) and signal readout at 415 nm on a plate reader (Molecular Device). […]

B1: mAb39 (antibody, V domains shown)
VH: QVQLQQPGAELVKPGASVKLSCKASGYSFTTYWMHWVKQRPGQGLEWVGDINPRNGRTNYNEKSKSKATLTVDISSSTVYMQVSSLTSEDSAVYYCAIWSGAMDYWGPGTSVTVSS
VL: DVVMTQTPLSLPVSLGDQPSISCKSSQSLVHNNGNTYLHWYLQKPGQSPKLLIYKVSNRFSGVPDRFSGSGSGTDFTLKISRVEAEDLGVYFCSQTTHVPPTFGGGTKLEIKR
notes: Mouse hybridoma mAb purified on protein A/G; In some assays it was labelled with Alexa Fluor 555 or d2; also called monoclonal antibody mAb39; anti-ZnT8 mAb39
In the case of B1, the “EC50 (read off the curve)” value (human ZnT8-His) is reported as about 10 nM and the binding result [1] is reported as “no binding”.
